# Entries after “also recorded” stand apart in the source; their conditions may differ.
# How the values were obtained:
# [1] = hIntL-1 carbohydrate binding ELISA-like assay
# [2] = hIntL-1 carbohydrate binding ELISA-like assay; remark: listed apart in the source
# Description: (§1) To fabricate carbohydrate-displaying surfaces, 0.5 μg of streptavidin (Prozyme, cat. no. SA20) was adsorbed onto a Maxisorp (Nunc) flat bottom 96 well plate in PBS. Wells were washed with PBS and then coated with 5 μM of carbohydrate-biotin ligand in PBS for 1 hour at 22° C. Wells were blocked with bovine serum albumin (BSA) in ELISA buffer (20 mM HEPES (7.4) 150 mM NaCl, 10 mM CaCl2, and 0.1% tween-20). Samples containing hIntL-1 were prepared by serial dilution into ELISA buffer+0.1% BSA and added to wells for 2 hours at 22° C. Wells were washed four times with ELISA buffer. Bound hIntL-1 was detected using 0.75 μg/mL of a sheep IgG hIntL-1 antibody (R&D Systems, cat. no. AF4254) in ELISA buffer+0.1% BSA for 2 hours at 22° C. Wells were washed with ELISA buffer. A donkey anti-sheep IgG horseradish peroxidase (HRP) conjugate (Jackson ImmunoResearch Laboratories) was added at a 1:5,000 dilution in ELISA buffer+0.1% BSA for 1 hour at 22° C. Wells were washed and hIntL-1 was detected colorimetrically with addition of 1-Step Ultra TMB-ELISA (Pierce). Once sufficient signal was achieved (typically <2 min.), the reaction was quenched with addition of equal volume 2 M H2SO4. Plates were read at 450 nm on an ELx800 plate reader (Bio-Tek). When testing the Ca^2+ dependency of hIntL-1, 1 mM EDTA replaced 10 mM CaCl2 in all steps. Data were analyzed on Prism6 (GraphPad). […]
# [3] = CFG mammalian glycan array v5.1; type: binding; details: hIntL-1 at 50 and 200 μg/ml
# [4] = Microbial Glycan Microarray (MGMv2); type: binding, E. coli; details: Strep-hIntL-1 50 μg/mL; terminal α-Galf residue
# Description: (§2) Strep-hIntL-1 was used to interrogate the Microbial Glycan Microarray version 2 (MGMv2). Construction of the MGMv2 is previously described. Briefly, bacterial polysaccharide samples were dissolved and diluted to 0.5 mg/mL in printing buffer (150 mM sodium phosphate buffer (8.4)+0.005% Tween-20). Samples were immobilized on NETS-activated glass slides (SlideH, Schott/Nexterion) using a MicroGrid II (Digilab) contact microarray printer equipped with SMP-4B printing pins (Telechem). Six replicates of each bacterial glycan sample were printed. Covalent coupling of glycans to the surface was facilitated by incubation for 1 hour postprint at 100% relative humidity. The remaining reactive NHS-moieties were quenched using a blocking solution (50 mM ethanolamine in 50 mM borate buffer (9.2)). Blocked slides were stored at −20° C. until assays were performed. […] The Strep-Tag® II on bound hIntL-1 was detected using StrepMAB-Classic Chromeo647 (10 μg/mL, IBA GmbH Lifesciences) diluted in binding buffer applied directly to the array surface and allowed to incubate for 1 hour. […] Signal data was calculated as the average of 4 values after removing the high and low values of the 6 replicates. Data were plotted using Excel (Microsoft) as average Relative Fluorescence Units (RFU) versus print identification number. […]
# [5] = Microbial Glycan Microarray (MGMv2); type: binding, Shigella boydii; details: Strep-hIntL-1 50 μg/mL; terminal α-Galf residue
# Description: as §2
# [6] = test system: adult male fecal microbiome; assay: Flow cytometry binding to adult fecal microbiome; parameters: species or system human; details: adult fecal sample, 15 μg/mL Strep-tagged-hIntL-1, 10 mM CaCl2
# Description: Human fecal samples provide a non-invasive proxy of the intestinal microbiome of a patient. The inventors have isolated the intestinal microbiome from human fecal samples and analyzed it for hIntL-1 binding. The isolated microbiome was fixed using an aqueous solution of 1% formaldehyde. Cells were stained as described elsewhere, using either a solution including calcium ions (100 mM) or one containing the calcium ion chelator EDTA. Microbes were exposed to 20 mM HEPES (pH 7.2), 150 mM NaCl, 10 mM CaCl2, 15 μg/mL Strep-tagged-hIntL-1, 0.1% bovine serum albumin (BSA), 0.05% tween-20, 2 μg/mL StrepMAB Classic conjugated to Oyster 645 (IBA Lifesciences, cat. no.: 2-1555-050). To test for a role for calcium ions, cells were exposed to a solution of 20 mM HEPES (pH 7.2), 150 mM NaCl, 1 mM EDTA, 15 μg/mL Strep-tagged-hIntL-1, 0.1% bovine serum albumin (BSA), 0.05% tween-20, 2 μg/mL StrepMAB Classic Conjugated to Oyster 645 (IBA Lifesciences, cat. no.: 2-1555-050). Cells are analyzed consecutively on a BD LSRII flow cytometer using identical instrument setting. Unstained cells, cells stained in the presence of calcium ions (10 mM), and cells stained in the presence of EDTA were directly compared. […]
# [7] = hIntL-1 carbohydrate binding ELISA-like assay; details: ligands other than β-Galf
# Description: as §1
molecule,measurement,setting,value
"hIntL-1: human lectin intelectin-1, accession no. Q8WWA0; recombinant disulfide-linked trimer from HEK 293T cells, used also N-terminally Strep-tagged (Strep-hIntL-1) (protein, listed as Homo sapiens) MNQLSFLLFLIATTRGWSTDEANTYFKEWTCSSSPSLPRSCKEIKDECPSAFDGLYFLRTENGVIYQTFCDMTSGGGGWTLVASVHENDMRGKCTVGDRWSSQQGSKAVYPEGDGNWANYNTFGSAEAATSDDYKNPGYYDIQAKDLGIWHVPNKSPMQHWRNSSLLRYRTDTGFLQTLGHNLFGIYQKYPVKYGEGKCWTDNGPVIPVVYDFGDAQKTASYYSPYGQREFTAGFVQFRVFNNERAANALCAGMRVTGCNTEHHCIGGGGYFPEASPQQCGDFSGFDWSGYGTHVGYSSSREITEAAVLLFYR",binding to β-Galf on addition of EDTA,"[1]; hIntL-1 conditioned HEK culture media, addition of 25 mM EDTA",completely abolished binding
same,Kd,"[1]; trimeric hIntL-1, ELISA-like assay, 10 mM CaCl2, read-out: avidity (apparent Kd) for immobilized β-Galf",85 ± 14 nM
same,binding to immobilized α-Neu5Ac,[2],lack of affinity; also recorded: does not bind
same,binding to human glycan ligands on CFG mammalian glycan array,[3],none are bound by hIntL-1 with appreciable affinity
same,signal on microbial glycan array,[4],49 RFU
same,signal on microbial glycan array,[5],26 RFU
same,fraction of bacteria of the human microbiome bound by hIntL-1,[6],approximately 25%
same,binding to other immobilized carbohydrate ligands,[7],not detected

# From patent publication US10413588B2, “Probiotic function of human intelectin” (Wisconsin Alumni Research Foundation, priority 2015, dated 2019)
